The values that follow come from article PMC7020754.

The data set has as its target T1, Rv0023 (XRE family transcription regulator) (Mycobacterium tuberculosis, UniProt P9WMI3 1-256).
T1 sequence: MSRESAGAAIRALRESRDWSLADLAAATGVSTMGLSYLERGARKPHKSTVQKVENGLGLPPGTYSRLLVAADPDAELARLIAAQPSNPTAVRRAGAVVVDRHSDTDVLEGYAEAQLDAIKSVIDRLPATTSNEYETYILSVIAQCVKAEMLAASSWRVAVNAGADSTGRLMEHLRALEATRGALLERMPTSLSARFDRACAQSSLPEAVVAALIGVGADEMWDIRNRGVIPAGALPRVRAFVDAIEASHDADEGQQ
As to the kind of experiment: EMSA; 8 pmol protein. To be noted: protein: recombinant; tags: His (implied by Ni-NTA purification; pET23a, also printed pET21b); chain copies: 2; label: 32P; blunt. On the technique in general: A gel shift assay detects complexes by their altered migration in electrophoresis.

B1: OL1M (dsDNA)
DNA 1: CACCCCTTATGTAGAGACGTGTGTATCGCGATTCTCTTGC
DNA 2: GCAAGAGAATCGCGATACACACGTCTCTACATAAGGGGTG
Take B1: the binding result is “no binding”.

B2: OL3M (dsDNA)
DNA 1: AGAGCCCGCCACAGACAGAGACGCGTGTGCCTATGTTTCG
DNA 2: CGAAACATAGGCACACGCGTCTCTGTCTGTGGCGGGCTCT
Consider B2, for which the binding result is recorded as “no binding”.
